From patent US20210309718A1 (THERACHON, published 2021)

B1: sFGFR3_Del4-D3 (receptor)
chain: ESLGTEQRVVGRAAEVPGPEPGQQEQLVFGSGDAVELSCPPPGGGPMGPTVWVKDGTGLVPSERVLVGPQRLQVLNASHEDSGAYSCRQRLTQRVLCHFSVRVTDAPSSGDDEDGEDEAEDTGVDTGAPYWTRPERMDKKLLAVPAANTVRFRCPAAGNPTPSISWLKNGREFRGEHRIGGIKLRHQQWSLVMESVVPSDRGNYTCVVENKFGSIRQTYTLDVLERSPHRPILQAGLPANQTAVLGSDVEFHCKVYSDAQPHIQWLKHVEVNGSKVGPDGTPYVTVLKTAGANTTDKELEVLSLHNVTFEDAGEYTCLAGNSIGFSHHSAWLVVLPVSLESNASMSSNT
notes: Secreted form without signal peptide; also called sFGFR3_Del4 with extended Ig-like C2-type domain 3

Legend:
[1] = biological target: T1, human FGF9 (human, UniProt P31371 4-208); assay: SPR (Biacore T200), immobilised sFGFR3_Del4-D3, steady state
[2] = biological target: T1, human FGF9; assay: SPR (Biacore T200), immobilised sFGFR3_Del4-D3, FGF as analyte, 2:1 (conformational change) model, kd1
[3] = biological target: T1, human FGF9; assay: SPR (Biacore T200), immobilised sFGFR3_Del4-D3, kinetic fit, 2:1 model
[4] = biological target: T1, human FGF9; assay: SPR (Biacore T200), immobilised sFGFR3_Del4-D3, FGF as analyte, 2:1 (conformational change) model, ka1
[5] = biological target: B1; assay: SPR (Biacore T200), immobilised sFGFR3_Del4-D3, steady state
[6] = biological target: B1; assay: SPR (Biacore T200), immobilised sFGFR3_Del4-D3, FGF as analyte, 1:1 model, ka1
[7] = biological target: B1; assay: SPR (Biacore T200), immobilised sFGFR3_Del4-D3, kinetic fit, 1:1 model
[8] = biological target: B1; assay: SPR (Biacore T200), immobilised sFGFR3_Del4-D3, FGF as analyte, 2:1 (conformational change) model, kd1
[9] = biological target: B1; assay: SPR (Biacore T200), immobilised sFGFR3_Del4-D3, kinetic fit, 2:1 model
[10] = biological target: B1; assay: SPR (Biacore T200), immobilised sFGFR3_Del4-D3, FGF as analyte, 2:1 (conformational change) model, ka1
[11] = biological target: B1; assay: SPR (Biacore T200), immobilised sFGFR3_Del4-D3, FGF as analyte, 2:1 (conformational change) model, kd2

B1
Kd [1]: 3.6 nM
koff [2]: 0.026 s⁻¹
Kd [3]: 1.8 nM
kon [4]: 2.3e+06 M⁻¹ s⁻¹

B2: human FGF18 (ligand)
chain: EENVDFRIHVENQTRARDDVSRKQLRLYQLYSRTSGKHIQVLGRRISARGEDGDKYAQLLVETDTFGSQVRIKGKETEFYLCMNRKGKLVGKPDGTSKECVFIEKVLENNYTALMSAKYSGWYVGFTKKGRPRKGPKTRENQQDVHFMKRYPKGQPELQKPFKYTTVTKRSRRIRPTHPA
notes: also called hFGF18; fibroblast growth factor 18
Kd [5]: 6.4 nM
kon [6]: 200000 M⁻¹ s⁻¹
Kd [7]: 4.5 nM

B3: human FGF21 (ligand)
chain: HPIPDSSPLLQFGGQVRQRYLYTDDAQQTEAHLEIREDGTVGGAADQSPESLLQLKALKPGVIQILGVKTSRFLCQRPDGALYGSLHFDPEACSFRELLLEDGYNVYQSEAHGLPLHLPGNKSPHRDPAPRGPARFLPLPGLPPALPEPPGILAPQPPDVGSSDPLSMVGPSQGRSPSYAS
notes: also called hFGF21; fibroblast growth factor 21
koff [8]: 0.0055 s⁻¹
Kd [9]: 28000 nM
kon [10]: 258 M⁻¹ s⁻¹
kd2 [11]: 0.0014 s⁻¹
